Biological target: HIV-1 Env of the HXB2 strain (envelope glycoprotein complex gp120/gp41) (HIV-1 (HXB2 strain), UniProt P04578 33-856)
Test: cell-based or functional assay

B1: single-chain Alphabody scAB_Env03_KC (designed binder)
chain: MGHHHHHHHHHHSSGHIEGRHMSIEEIQKPIATIQEAIAWIQKKIYMMTGGSGGGSGGGSGGGSGMSIEEIQKQIAAIQCQIAAIQKQIYAMTGGSGGGSGGGSGGGSGMSIEEIQKQIVAIMEQIVAIVKQISAMTP
modifications: Interchain disulfide between Cys80 of chain 1 and Cys80 of chain 2 (homodimer; paragraph 268, and FIG.11 prints 'scAB_Env03_KC (dimer)').
notes: also called Env03 Cys-mutant
  50% inhibitory concentration (IC50), 5-day MTT infection assay, HXB2 virus on MT4-X4 cells: 709 nM
